In publication PMC10786891, “Massively parallel profiling of RNA-targeting CRISPR-Cas13d”:

Target: T1, EsCas13d, nuclease-dead (Eubacterium siraeum, UniProt B0MS50, R295A;H300A;R849A;H854A)
T1 sequence: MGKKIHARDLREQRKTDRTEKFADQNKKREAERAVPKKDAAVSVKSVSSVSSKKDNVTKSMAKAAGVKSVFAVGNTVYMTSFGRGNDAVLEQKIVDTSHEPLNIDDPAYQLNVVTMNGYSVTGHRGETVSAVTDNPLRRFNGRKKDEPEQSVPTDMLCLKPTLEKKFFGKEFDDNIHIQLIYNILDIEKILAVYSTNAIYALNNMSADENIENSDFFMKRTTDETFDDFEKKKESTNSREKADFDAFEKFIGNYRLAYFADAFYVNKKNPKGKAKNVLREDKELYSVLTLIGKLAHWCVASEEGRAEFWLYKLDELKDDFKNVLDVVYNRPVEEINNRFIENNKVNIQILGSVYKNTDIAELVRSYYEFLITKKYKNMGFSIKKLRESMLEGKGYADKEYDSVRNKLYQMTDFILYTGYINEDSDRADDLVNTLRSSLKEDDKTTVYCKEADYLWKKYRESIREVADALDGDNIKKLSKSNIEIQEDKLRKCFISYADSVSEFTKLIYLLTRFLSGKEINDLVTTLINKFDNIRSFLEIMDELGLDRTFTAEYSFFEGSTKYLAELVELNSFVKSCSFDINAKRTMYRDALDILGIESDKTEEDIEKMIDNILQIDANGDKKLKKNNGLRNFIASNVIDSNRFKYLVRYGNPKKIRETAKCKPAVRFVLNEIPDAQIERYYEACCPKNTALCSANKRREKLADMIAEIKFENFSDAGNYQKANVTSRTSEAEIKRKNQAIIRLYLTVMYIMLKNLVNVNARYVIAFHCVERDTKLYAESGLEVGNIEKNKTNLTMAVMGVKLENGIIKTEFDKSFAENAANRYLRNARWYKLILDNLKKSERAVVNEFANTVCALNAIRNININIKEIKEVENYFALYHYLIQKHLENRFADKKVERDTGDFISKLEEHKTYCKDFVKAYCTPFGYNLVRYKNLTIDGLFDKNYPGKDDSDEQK
Assay: crRNA (strand 1, pre-loaded); Mg2+; 40 mM Tris-HCl pH 7.5, 150 mM NaCl, 6 mM MgCl2, 1 mM DTT, 0.1% Tween-20, 0.2 mg/ml BSA; 25 C; 10 min per concentration, then washed
Details: tags: His6-TwinStrep-SUMO cleaved; N-terminal SNAP kept (SNAP-Surface 488); label: 3' end held by stalled T7 RNA polymerase

B1: target 1 G5C,G15U (mixed)
RNA 1: CACCCGUGCAAAAAUGCAGGGGUCUAAAACUGAGCGGAUAACCUCUCUAUGG
RNA 2: GGGAAUGGAUCCACAUCUACGAAUUCGUACCAUAGAUAGGUUAUCCCCUCACCGAGAUCGGAAGAGCACACGU
Work on B1 yielded a Kd of 28.6 ± 2.4 nM.

B2: target 3 insU 3' of 9,insA 3' of 6 (mixed)
RNA 1: CACCCGUGCAAAAUUGCAGGGGUCUAAAACGACCUGAAUAUUUCAGAUCAAA
RNA 2: GGGAAUGGAUCCACAUCUACGAAUUCGUUUUUGAUCUGAAAUAUUUCAAGGUCUGCAGAUCGGAAGAGCACACGU
With B2 the Kd was 85 ± 40 nM.

B3: target 3 G3C,U7A (mixed)
RNA 1: CACCCGUGCAAAAUUGCAGGGGUCUAAAACGACCUGAAUAUUUCAGAUCAAA
RNA 2: GGGAAUGGAUCCACAUCUACGAAUUCGUUUUUGAUCUGAAAUAUACAGCUCUGCAGAUCGGAAGAGCACACGU
B3 showed a Kd of 32.9 ± 3.6 nM.

B4: target 3 G3U,U7C (mixed)
RNA 1: CACCCGUGCAAAAUUGCAGGGGUCUAAAACGACCUGAAUAUUUCAGAUCAAA
RNA 2: GGGAAUGGAUCCACAUCUACGAAUUCGUUUUUGAUCUGAAAUAUCCAGUUCUGCAGAUCGGAAGAGCACACGU
B4 gave a Kd of 86 ± 36 nM.

B5: target 3 insC 3' of 22,insA 3' of 3 (mixed)
RNA 1: CACCCGUGCAAAAUUGCAGGGGUCUAAAACGACCUGAAUAUUUCAGAUCAAA
RNA 2: GGGAAUGGAUCCACAUCUACGAAUUCGUUUCUUGAUCUGAAAUAUUCAGGAUCUGCAGAUCGGAAGAGCACACGU
In the case of B5, the Kd is reported as 65.5 ± 14 nM.

B6: target 3 C1U,U2C (mixed)
RNA 1: CACCCGUGCAAAAUUGCAGGGGUCUAAAACGACCUGAAUAUUUCAGAUCAAA
RNA 2: GGGAAUGGAUCCACAUCUACGAAUUCGUUUUUGAUCUGAAAUAUUCAGGCUUGCAGAUCGGAAGAGCACACGU
Work on B6 yielded a Kd of 54 ± 18.5 nM.

B7: target 3 U2A,U22G (mixed)
RNA 1: CACCCGUGCAAAAUUGCAGGGGUCUAAAACGACCUGAAUAUUUCAGAUCAAA
RNA 2: GGGAAUGGAUCCACAUCUACGAAUUCGUUGUUGAUCUGAAAUAUUCAGGACUGCAGAUCGGAAGAGCACACGU
B7 was tested, and the Kd was 65.5 ± 11.5 nM.

B8: target 3 C1G,C6U (mixed)
RNA 1: CACCCGUGCAAAAUUGCAGGGGUCUAAAACGACCUGAAUAUUUCAGAUCAAA
RNA 2: GGGAAUGGAUCCACAUCUACGAAUUCGUUUUUGAUCUGAAAUAUUUAGGUGUGCAGAUCGGAAGAGCACACGU
With B8 the Kd was 22.1 ± 2.55 nM.

B9: target 3 insA 3' of 22,insU 3' of 11 (mixed)
RNA 1: CACCCGUGCAAAAUUGCAGGGGUCUAAAACGACCUGAAUAUUUCAGAUCAAA
RNA 2: GGGAAUGGAUCCACAUCUACGAAUUCGUUUAUUGAUCUGAAAUUAUUCAGGUCUGCAGAUCGGAAGAGCACACGU
For B9, the Kd was 72.5 ± 15.5 nM.

B10: target 3 G3A,A5G (mixed)
RNA 1: CACCCGUGCAAAAUUGCAGGGGUCUAAAACGACCUGAAUAUUUCAGAUCAAA
RNA 2: GGGAAUGGAUCCACAUCUACGAAUUCGUUUUUGAUCUGAAAUAUUCGGAUCUGCAGAUCGGAAGAGCACACGU
B10 showed a Kd of 42.5 ± 6 nM.

B11: target 3 C6U,A12C (mixed)
RNA 1: CACCCGUGCAAAAUUGCAGGGGUCUAAAACGACCUGAAUAUUUCAGAUCAAA
RNA 2: GGGAAUGGAUCCACAUCUACGAAUUCGUUUUUGAUCUGACAUAUUUAGGUCUGCAGAUCGGAAGAGCACACGU
B11 showed a Kd of 72 ± 12.5 nM.

B12: target 3 insA 3' of 7,insG 3' of 7 (mixed)
RNA 1: CACCCGUGCAAAAUUGCAGGGGUCUAAAACGACCUGAAUAUUUCAGAUCAAA
RNA 2: GGGAAUGGAUCCACAUCUACGAAUUCGUUUUUGAUCUGAAAUAUUAGCAGGUCUGCAGAUCGGAAGAGCACACGU
With B12 the Kd was 30.4 ± 3.7 nM.

B13: target 3 U2A,U7C (mixed)
RNA 1: CACCCGUGCAAAAUUGCAGGGGUCUAAAACGACCUGAAUAUUUCAGAUCAAA
RNA 2: GGGAAUGGAUCCACAUCUACGAAUUCGUUUUUGAUCUGAAAUAUCCAGGACUGCAGAUCGGAAGAGCACACGU
B13 was tested, and the Kd was 38 ± 13 nM.
